From paper PMC10132761
Where a chain is given by its changes, count along the chain named. Numbers in names are those of the source. Blank lines part the entries; values can stand above or below the binder they belong to.

Molecular target: peptide encoding HTP-3 closure motif #4 (C. elegans)
Assay: fluorescence polarisation; 50 nM N-terminal FITC-Ahx peptide plus indicated amounts of HIM-3 (WT or R93Y); 20 mM Tris pH 7.5, 300 mM NaCl, 10% glycerol, 1 mM DTT, 0.1% NP-40; 60 minutes at room temperature; triplicate; single-site binding model

Kd: 220 nM
B1: HIM-3 (wildtype, residues 2-291) (natural protein)
chain: ATKEQIVEHRESEIPIASQWKATFPVDLEIEKNSEMFALRYIKCASAFILDRRGILDEKCFKTRTIDKLLVTAFQSSVPAAKRVSSTFDGLRDAIQQGYLREFAIVFYKKPNEEDINEVFAFRFAYGDEGEIFVSLNNGIDTNESSQELLQAKFVDTDNTKQMFASTIKKLHRCIKKMEPLPQGSDASFRVSYTEKAPKDYTPEGYLLSPMFYTLNQDIRKASIGIVCGGHHKIQMLAASQYLKQDFDLDKTTTLNPNMSIMANQSKRKGRISRDSPYGLSQGITKKNKD

Kd: 690 nM
B2: HIM-3^R93Y (residues 2-291) (natural protein)
chain: B1 chain with R92Y
